Results on two molecules are retold here after article PMC6811742, “No interactions between heparin and atacicept, an antagonist of B cell survival cytokines” (British Journal of Pharmacology, 2019).

B2: Atacicept (TACI (30–110)‐Fc) (Fc fusion, human, UniProt O14836 30-110, looked up)
chain: AMRSCPEEQYWDPLLGTCMSCKTICNHQSQRTCAAFCRSLSCRKEQGKFYDHLLRDCISCASICGQHPKQCAYFCENKLRS
notes: also called TACI‐Fc; dimeric atacicept; source: provided by Merck (Darmstadt, Germany); also in sera of human subjects after 150 mg subcutaneously

Assay [1] deals with B2. Briefly: ELISA; plates coated with atacicept at 1 μg/ml in PBS, blocked, incubated with the indicated concentrations of Flag‐APRIL; revealed with anti‐Flag reagents. As to conditions: both partners purified. (In general: In an ELISA, binding on a coated surface is turned into a signal by an enzyme label.)
The next assay addresses T1, Flag‐mBAFF (mouse, UniProt Q9WU72 127-309).
T1 construct: linker after the Flag tag; mouse BAFF, residues 127-309; that it is Flag‐mBAFF (ps657) is surmised; Encoded with an HA signal before the Flag tag; also called recombinant mouse BAFF; mouse BAFF
Briefly: AlphaScreen or HTRF; AlphaLISA of atacicept diluted in mouse plasma with a matched pair of anti‐TACI antibodies (biotinylated ATA2, ATA3 acceptor beads), with or without recombinant mouse BAFF, with or without acid dissociation; conversely AlphaLISA of mouse BAFF in Baff−/− serum with 0, 100 or 2000 ng/ml atacicept. As to conditions: both partners purified. (In Alpha technology, singlet oxygen from a donor bead excites a nearby acceptor bead.)

T1 sequence (Q9WU72 other isoform, or with tags, fused parts or gaps): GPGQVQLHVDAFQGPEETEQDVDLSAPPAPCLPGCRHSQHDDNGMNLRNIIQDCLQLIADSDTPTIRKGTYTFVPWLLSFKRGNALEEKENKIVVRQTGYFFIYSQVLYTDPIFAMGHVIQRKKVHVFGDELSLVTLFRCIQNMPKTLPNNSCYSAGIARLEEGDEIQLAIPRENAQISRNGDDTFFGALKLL

B1: Flag‐ACRP‐hAPRIL (ligand)
chain: not shown
notes: linker after the Flag tag; human ACRP30 (adiponectin), residues 16-108; linker; human APRIL, residues 105-250, starting at alanine 105 just after the furin cleavage site; also called Flag‐APRIL; ps1088; source: HEK293 cells, purified on anti‐Flag agarose
B1: the binding result in assay [1] is “binds”.

With B2, the binding result in the assay with Flag‐mBAFF is given as “binds”.
